Measured values taken from patent US12365732 (23ANDME, dated 2025).
Residue numbers refer to the chain shown, from its start. In names and notes the source's numbering stands.

T1: hu-CD96 isoform 1 on HEK293T cells (human, UniProt P40200 22-585)
T1 construct: Origene RC213845, transient expression; also called HEK293T-CD96 (iso1)
T1 sequence: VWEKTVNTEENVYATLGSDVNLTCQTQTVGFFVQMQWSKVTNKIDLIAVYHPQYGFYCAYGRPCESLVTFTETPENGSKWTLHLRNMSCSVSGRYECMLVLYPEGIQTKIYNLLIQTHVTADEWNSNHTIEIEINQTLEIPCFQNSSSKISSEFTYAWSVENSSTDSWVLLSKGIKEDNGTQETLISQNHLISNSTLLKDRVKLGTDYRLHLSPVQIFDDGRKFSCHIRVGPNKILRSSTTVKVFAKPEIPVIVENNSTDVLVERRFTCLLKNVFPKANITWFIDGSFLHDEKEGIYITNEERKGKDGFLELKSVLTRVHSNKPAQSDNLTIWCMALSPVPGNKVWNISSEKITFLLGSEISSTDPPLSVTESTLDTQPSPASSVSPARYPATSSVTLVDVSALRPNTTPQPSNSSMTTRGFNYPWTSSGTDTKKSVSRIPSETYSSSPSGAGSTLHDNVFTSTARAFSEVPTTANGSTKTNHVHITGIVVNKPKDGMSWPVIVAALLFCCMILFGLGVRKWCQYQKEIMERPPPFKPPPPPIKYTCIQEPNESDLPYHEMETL

T2: hu-CD96 isoform 2 on CHO cells (human, UniProt P40200 22-585)
T2 construct: also called CHO-CD96 (isoform 2); CD96-CHOs
T2 sequence: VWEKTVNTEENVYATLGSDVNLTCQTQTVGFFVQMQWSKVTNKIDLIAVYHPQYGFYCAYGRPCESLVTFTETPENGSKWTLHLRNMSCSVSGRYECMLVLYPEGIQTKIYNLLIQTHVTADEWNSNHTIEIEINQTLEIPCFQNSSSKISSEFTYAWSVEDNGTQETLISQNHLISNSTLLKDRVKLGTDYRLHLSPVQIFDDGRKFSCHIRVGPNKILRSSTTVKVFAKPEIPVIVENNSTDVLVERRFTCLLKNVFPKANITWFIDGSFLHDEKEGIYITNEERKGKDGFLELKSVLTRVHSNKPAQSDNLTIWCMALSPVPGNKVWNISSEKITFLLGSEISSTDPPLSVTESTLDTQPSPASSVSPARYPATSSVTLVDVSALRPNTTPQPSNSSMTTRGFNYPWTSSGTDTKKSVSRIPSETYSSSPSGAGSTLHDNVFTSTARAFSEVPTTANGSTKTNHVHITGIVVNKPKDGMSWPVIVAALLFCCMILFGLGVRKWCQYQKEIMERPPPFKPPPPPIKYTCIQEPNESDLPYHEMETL

B1: 7E5, purified hybridoma antibody (antibody, V domains shown)
VH: QVQLKESGPGLVAPSQSLSIICTVSGFSLTNYGIHWIRQPPGKGLEWLGIIWAGGSTNYNSALMSRLTISKDNSKSQVFLKMNSLQTNDTAIYYCARVSMMGFAYWGQGTLVTVSA
VL: QAVVTQESALTTSPGETVTLTCRSSTGAVTTSNYANWVQEKPDHLFTGLIGGTNNRAPGVPARFSGSLIGDKAALTITGAQTEDEAIYFCSLWYGSHWVFGGGTKLTVL
notes: murine hybridoma IgG
B2: h10G1 IgG (humanized 10G1) (antibody, V domains shown)
VH: EIQLVQSGSELKKPGASVKVSCKASGYPFTTYGMSWVRQAPGQGLEWMGWINTDSGVPTYADDFKGRFVFSLDTSVSTAYLQISSLKAEDTAVYFCARNIYYGWGNFDYWGQGTLVTVSS
VL: EIVMTQSPDFQSVTPKEKVTITCRASQDIYRNLHWYQQKPDQTPKLLIKHASDSISGIPSRFSGSGSGTDFTLTINSLEAEDAAAYYCLQGYSMPYTFGGGTKVEIKG
notes: human IgG1 N297G
B3: 9H4, purified hybridoma antibody (antibody, V domains shown)
VH: EVQLLETGGGLVKSGGSLKLSCAASGFTFSDYYMYWVRQTPEKRLEWVAAISDDGTYTYYPDSVKGRFTISRDNANNYLYLQMSSLKSEDTAIYYCAKAGSYDYFDVWGAGTTVTVSS
VL: DIVLTQSPASLAVSLGQRAIISCKASQSVTFADTGLMHWYQQKPGQQPKLLIYRASNLEVGVPTRFSGSGSGTDFTLNIHPVEEEDVATYYCQQSREYPWTFGGGTKLEIK
notes: murine hybridoma IgG
B4: 10G1 (clone 10G1.3G8), purified hybridoma antibody (antibody, V domains shown)
VH: QIQLVQSGPELKKPGETVKISCKASGYPFTTYGMSWVKQAPGKGLKWMGWINTDSGVPTYADDFKGRFAFSLETSANTAYLQINSLKNEDAATYFCARNIYYGWGNFDYWGQGTILTVSS
VL: DILMTQSPTTLSVTPGETVSLSCRASQDIYRNLHWYQQKSQGTPRLLIKHASDSISGIPSRFTGSGSGTDFTLSINSVKPEDEGIYYCLQGYSMPYTFGGGTKLEIK
notes: murine hybridoma IgG
B5: mAb1.v7 IgG (humanized 12F8) (antibody, V domains shown)
VH: EVQLVQSGAEVKKPGASVKVSCKASGFTFTNNWMHWVRQAPGQGLEWIGMIHPNSGITNINEKFKNRVTMTTDTSTSTAYMELRSLRSEDTAVYYCRSDGTYEGYFDYWGQGTLVTVSS
VL: DIQLTQSPSSLSASVGDRVTITCKASQNVGTAIVWYQQKPGKAPKVLIYSASTRYTGVPSRFSGSGSGTDFTLTISSLQPEDFATYYCQQYSSSPLTFGQGTKVEIKG
notes: human IgG1 N297G
B6: mAb1.v7.NGS11 IgG (antibody, V domains shown)
VH: B5 VH with W33F, M50F, P53A, T101V
VL: B5 VL
notes: human IgG1 N297G
B7: mAb1.v7.NGS10 IgG (antibody, V domains shown)
VH: B5 VH with W33F, M50F, P53A, T101I
VL: B5 VL
notes: human IgG1 N297G
B8: mAb1.v7.NGS9 IgG (antibody, V domains shown)
VH: B5 VH with W33F, P53A, T101V
VL: B5 VL
notes: human IgG1 N297G

Columns and labels:
[1] = molecular target: T3, cynomolgus monkey CD96D1 D3-hFc (cynomolgus monkey); experiment: ELISA, coated CD96D1D3-hFc
T3 construct: also called cy-CD96D1 D3
Protocol: (§1) CD96 binding of purified hybridoma antibodies: The hu-CD96 and cy-CD96 antigen binding ELISA was performed on the purified hybridoma antibodies. Briefly, 96-well MAXISORP® flat bottom plates (Thermo Fisher Scientific, Waltham, MA; Cat #439454) were coated overnight at 4° C. with 0.5 µg/mL of hu-CD96D1 D3-hFc and cynomolgus monkey CD96D1 D3-hFc in PBS. After removing the coating solution, unspecific binding was blocked by PBS containing 1% bovine serum albumin (blocking buffer) and incubation at room temperature for one hour. Plates were then washed three times with PBS and 0.05% TWEEN®-20 (wash buffer). Serial dilution of purified antibodies in PBS containing 0.5% BSA and 0.05% Tween 20 (ELISA buffer) was added to individual wells followed by incubation at room temperature for one hour with agitation. Plates were washed three times with wash buffer, then 100 µL/well of anti-mouse IgG-HRP (Thermo Fisher Scientific, Waltham, MA; Cat #626520) in ELISA buffer was added. […] Enzymatic color development was stopped with 50 µL/well of TMB stop solution (VWR/Avantor, Radnor, PA, USA; Cat #95059-200). Plates were analyzed with a SpectraMax i3X plate reader (Molecular Devices LLC, San Jose, CA, USA) at 450 nm.

hu-CD96D1 D3-hFc = hu-CD96D1 D3-hFc (human); experiment: ELISA, coated CD96D1D3-hFc
Protocol: as §1

[2] = molecular target: T1, hu-CD96 isoform 1 on HEK293T cells; experiment: FACS, Ab 2 nM
Protocol: Isoform 1 of hu-CD96 (Origene, catalog #RC213845) was transiently expressed in HEK293T cells following standard lipofectamine or Fugene transfection protocol. […] Cells were washed, and binding was detected by incubation with anti-mouse IgG-FITC (Biolegend, catalog #406001) for 20 minutes at 4° C. Cell binding was analyzed by flow cytometry with a CytoFLEX (Beckman Coulter). Binding curves were calculated as a percentage of cells positive for bound antibody.

[3] = molecular target: T2, hu-CD96 isoform 2 on CHO cells; experiment: FACS, CD155-Fc-FLAG 10 nM, Ab 0.8 nM
Protocol: CHO cells stably expressing isoform 2 of hu-CD96 (Origene, catalog #RC221005) were incubated with anti-CD96 antibodies for 20 minutes at 4° C. The cells were washed, and then incubated with 10 nM human CD155-Fc-FLAG for 30 minutes at 4° C. Cells were washed, and then human CD155-Fc-FLAG binding was detected by incubation with anti-FLAG-APC (Columbia Biosciences, catalog #D3-1718-1MG) for 20 minutes at 4° C. Cell binding was analyzed by flow cytometry with a CytoFLEX (Beckman Coulter). CD155 binding is represented as median fluorescence intensity (MedFI).
As shown in Table 20 (below), the anti-CD96 antibodies, mAb1.v7.NGS8, mAb1.v7.NGS9, mAb1.v7.NGS10, mAb1.v7.NGS11, and h10G1 inhibited soluble hu-CD155 binding to CD96-expressing CHO cells dose-dependently and potently. The antibody NK92.39 (Fuchs et al., 2004; Biolegend catalog #338405) inhibited receptor binding similarly.

Row | Binder | EC50 [1] [nM] | EC50 (hu-CD96D1 D3-hFc) [nM] | % positive [2] [%] | CD155-Fc binding (MedFI) [3] [MedFI] | binding result [1]
1 | B1 | 0.53 | 0.06 | 37.1 | – | –
2 | B2 | – | – | – | 5870 | –
3 | B3 | – | 0.24 | 28.5 | – | no binding
4 | B4 | 0.2 | 0.03 | 48.1 | – | –
5 | B5 | – | – | 27.3 | – | –
6 | B6 | – | – | – | 23600 | –
7 | B7 | – | – | – | 23600 | –
8 | B8 | – | – | – | 32200 | –
